What all share (assay): HRP/ABTS coupled H2O2 assay, A420, Lineweaver-Burk
Common to all, as to assay type: biochemical, Trametes cinnabarina
Settings in all cases: 50 mM sodium 2,2-dimethylsuccinate, pH 6, 30°C, O2 as co-substrate, HRP, 0.1 mM ABTS

Substrate in data set [1]: O=CC(=O)O
From the text: (§1) HRP/ABTS coupled H2O2 assay, A420, Lineweaver-Burk on PciGLOX2

Substrate in data set [2]: CC(=O)C=O
From the text: as §1

Substrate in data set [3]: OCC(O)CO
From the text: as §1

Substrate in data set [4]: O=CC=O
From the text: as §1

Substrate in data set [5]: O=CC(=O)O
From the text: (§2) HRP/ABTS coupled H2O2 assay, A420, Lineweaver-Burk on PciGLOX1
This is another data set of the same source.

Substrate in data set [6]: CC(=O)C=O
From the text: as §2
This is another data set of the same source.

Substrate in data set [7]: O=CC=O
From the text: as §2
The source holds these as a separate data set.

One may read the Km as the concentration of substrate that gives half-maximal velocity. As usually defined, the Vmax is the rate approached at saturating substrate. A word on the kcat: it is the maximal rate divided by the concentration of active sites. One may read the kcat/Km as the turnover number divided by the Michaelis constant.

B1: PciGLOX2 (Trametes cinnabarina) (protein)
chain: APSTPTGWQFNLKAERSGIVALESIVVSPTLVVFFDRATNDPLQINNHSAWGALWNLETSTVRALDVLTNSFCASGALLSNGTMASIGGDPNGFPGNPAIHPGTQAIRLFEPCDSPTGEGCTLFEDPVTLHLLEKRWYPSSVRIFDGSLLIVGGMHEETPFYNTDPALSFEFFPPKESTPRPSEFLNRSLPANLFPRVFALPDGKVFMVANNQSIIYDIEANTERILPDIPNNVRVTNPIDGSAILLPLSPPDFVPEVLVCGGTQTDTIDPSLLTSQTPASSQCSRIRLDEEGIARGWEVEHMLEGRMMPELVHLPNGQVLIANGARTGFAAIASVSDPVGGSNADHAVLVPSLYTPDAPLGTRISNVGLPSSGIARVYHSSITLTPQGNFLIAGSNPNNNSSVTAGVKFPSEFRVQTLDPPFMFVERPKILSMPKKLAFGKSFTVPIAVPSTLAHPGAKVQVSLMDLGFSSHAFHSSARLVFMNAKISQDGKSLTFTTPPNGRVYPPGPATIFLTIDDVTSEGAWVMMGSGNPPPTLE
notes: secreted from Aspergillus niger D15#26; ORF 559 aa; N-terminus APST; N-glycosylated, 70 kDa (about 60 kDa deglycosylated)
Turning to B1, in data set [1], the Km was 100 µM, the Vmax amounted to 17.9 µmol/min/mg, the kcat turned out to be 1.7 s⁻¹ and the kcat/Km is 17000 M⁻¹ s⁻¹. Moreover, in data set [2], the Km is 200 µM and the turnover number (kcat) stood at 1.4 s⁻¹. Further, in data set [3], the Km stood at 9400 µM, the Vmax was determined as 6.42 µmol/min/mg, the turnover number (kcat) came out at 0.6 s⁻¹ and the kcat/Km stood at 63 M⁻¹ s⁻¹. Also, in data set [4], the Km is 2200 µM, the Vmax was found to be 15 µmol/min/mg, the kcat turned out to be 1.4 s⁻¹ and the kcat/Km came out at 636 M⁻¹ s⁻¹.

B2: PciGLOX1 (Trametes cinnabarina) (protein)
chain: APSAPGWRFDLKAERSGIVALESIVVSPTLVLWFDRASDDPLQINNHSAWGALWNLETSTVRPLNVLTNSFCASGALLSNGSMASVGGDPRGFPGNPAINPGNQAIRIFEPCASPTGDGCTVFEDPQTLHLLEDRWYPSSIRIFDGSLLIVGGTHVNENFYNLHPANSFEFFPPKESTPRPSAFLERSLPANLFPRIFALPDGKVFMVANNQSIIYDIEANTERILPDIPNNVRVTNPIDGSAILLPLTPPDYIPEVLVCGGTSTDPLDPSLLSSQTPATTQCSRIRLDEEGIAKGWQVEHMLEPRTMPELVHIPNGQILIANGARTGFAAIKQVQDPIGNSNSDHAVLVPSIYTPDAPLGQRISNAGMPSSGIARVYHSSITLTPQGNFLIAGSNPNGNTTVGPGVKFPSEFRVQTLDPPFMFVERPKILNTPEKLAFNKTFTVPISVPSTLASPGAKVQVSLMDLGFSSHAFHSSARLVFMDATISRDRRSLTFTTPPNGRVFPPGPATVFLTIDGVTSEGAWVMMGSGNSPPTLE
notes: secreted from Aspergillus niger D15#26; native 18-aa signal peptide … replaced by A. niger glucoamylase prepro (removed in processing); ORF 556 aa; N-terminus APSA; N-glycosylated, 70 kDa (about 60 kDa deglycosylated)
For the protein B2, in data set [5], the Km stood at 88 µM, the Vmax was found to be 192 µmol/min/mg, the kcat was 188 s⁻¹ and the kcat/Km came to 2.14e+06 M⁻¹ s⁻¹. Besides, in data set [6], the Km worked out at 1300 µM, the Vmax was 77.3 µmol/min/mg, the kcat was 76 s⁻¹ and the kcat/Km worked out at 58500 M⁻¹ s⁻¹. Further, in data set [7], the Km was determined as 13100 µM, the Vmax was 85.3 µmol/min/mg, the turnover number (kcat) worked out at 83 s⁻¹ and the kcat/Km was determined as 6340 M⁻¹ s⁻¹.
